Key:
[1] = molecular target: T1, human FOLR1 protein, His Tag (ACRO-FO1-H52H1) (human, UniProt P15328 25-233); assay: ELISA OD450 on human FOLR1 divided by OD450 of IgG level ELISA
T1 construct: not shown: His tag

[2] = molecular target: T2, Recombinant His-tagged FOLR1 (Example 5 ELISA) (UniProt P15328 25-233, limits assumed); assay: ELISA on coated recombinant His-tagged FOLR1, OD450; unit from the axis 'ADC conc ng/ml'
T2 construct: also called FOLR1-his; recombinant protein FOLR-1; not shown: His tag
T2 sequence (P15328 25-233 limits assumed): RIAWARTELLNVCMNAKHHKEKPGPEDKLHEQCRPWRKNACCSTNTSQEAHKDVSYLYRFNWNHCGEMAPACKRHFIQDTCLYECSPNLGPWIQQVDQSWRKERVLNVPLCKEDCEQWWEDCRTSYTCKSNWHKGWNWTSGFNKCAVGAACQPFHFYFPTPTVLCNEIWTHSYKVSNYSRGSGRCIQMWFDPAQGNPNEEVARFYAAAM

[3] = molecular target: T3, human FOLR1 on cells (Hela, RPTEC/TERT1, OVCAR3, OV90, IGROV-1, JEG-3, KB, NCI-H441) (human, UniProt P15328 25-234); assay: cell-based or functional assay
T3 sequence (P15328 25-234): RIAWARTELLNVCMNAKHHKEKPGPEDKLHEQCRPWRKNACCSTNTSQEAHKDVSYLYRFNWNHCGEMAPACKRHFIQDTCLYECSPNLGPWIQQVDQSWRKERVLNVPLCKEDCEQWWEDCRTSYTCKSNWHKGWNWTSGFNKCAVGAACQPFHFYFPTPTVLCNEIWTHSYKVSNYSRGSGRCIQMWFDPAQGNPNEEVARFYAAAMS

[4] = molecular target: T2, Recombinant His-tagged FOLR1 (Example 5 …); assay: ELISA on coated recombinant His-tagged FOLR1, OD450; unit from the axis 'ng/ml'; curves labelled without '-ADC'
[5] = molecular target: T3, human FOLR1 on cells (Hela, …); assay: flow cytometry on JEG-3 cells, PE anti-human Fc; unit from the axis 'Con.nM'

T1 sequence (P15328 25-233 limits assumed): as the sequence (P15328 25-233 limits assumed) above

B1: anti-FOLR1 antibody F40 (antibody, V domains shown)
VH: EVQLLESGGGVVQPGRSLRLSCAASGFTFSSYAMHWVRQAPGKGLEWVAVISYDGSNKYYADSVKGRFIISRDNSKNTVYLQMNSLRAEDTAVYYCARPTYVFTYTGSSFDYWGQGTQVTVSS
VL: DIQVTQSPSSLSASLGDTVSITCRASRGLTDSVAWYQQKPGQAPKLLIYAASTLQSGVPSRFGGSGSGSYFTLTITSLQPEDVATYYCQNYKSAPWTFGQGTKVEIK
notes: also called clone F40
B1 was tested. Which “Target binding/IgG level” value [1] did it give?
The value was 1.02 ratio of OD450.

B2: F8-ADC (antibody F8 conjugated to mc-VC-PAB-MMAE) (antibody, V domains shown)
VH: EVQLLESGGGVVQHGRSLRLSCAASGFTFSSYGMHWVRQAPGKGLEWVAVISYDGSNKYYADSVKGRFTISRDNSKNTLYLQMNSLRAEDTAVYYCARPRAYYGAYGSSFDYWGQGTQVTVSS
VL: EIVMTQSPSSVSASVGDRVAITCRASQGISSWLAWYQQKPGKAPKLLIYAASSLQSGVPSRFSGSGSGTDFTLTISSLQPEDFATYYCQQSYSTPLTFGGGTKVDIK
modifications: mc-VC-PAB-MMAE on cysteine thiols after TCEP reduction (positions not stated; DAR within 3~4)
notes: Antibody-drug conjugate; also called F8 immunoconjugate
Which results are given for B2?
EC50 [2]: 6.53 ng/mL; Internalization ratio (%), Hela, 4 h [3]: 45.7%; Internalization ratio (%), Hela, 24 h [3]: 73.1%; Internalization ratio (%), OV90, 4 h [3]: 32.7%; Internalization ratio (%), OVCAR3, 4 h [3]: 34.5%; Internalization ratio (%), OVCAR3, 24 h [3]: 47.6%

B3: anti-FOLR1 antibody F1 (antibody, V domains shown)
VH: EVQLLESGGGVVQPGRSLRLSCAASGFTFSSYGMHWVRQAPGKGLEWVAVISYDGSNKYYADSVKGRFTISRDNSKNTLYLQMNSLRAEDTAVYYCARPRAYYGAYGSSFDYWGQGTQVTVSS
VL: EIVMTQSPSSVSASVGDRVAITCRASQGISSWLAWYQQKPGKAPKLLIYAASSLQSGVPSRFSGSGSGTDFTLTISSLQPEDFATYYCQQSYSTPLTFGGGTKVDIK
notes: also called clone F1
B3 was tested. Which “Target binding/IgG level” value [1] did it give?
Its value is 1.08 ratio of OD450.

B4: anti-FOLR1 antibody F138 (antibody, V domains shown)
VH: EVQLLESGGGVVQPGRSLRLSCAASGFTFSSYGMHWVRQAPGKGLEWVAVISYDGSNKYYADSVKGRFTISTHNSKNTLYLQMNSLRAEDTAVYYCARPRAYYGAYGSSFDYWGQGTQVTVSS
VL: EIVMTQSPSSVSASVGDRVAITCRASQGISSWLAWYQQKPGKAPKLLIYAASSLQSGVPSRFSGSGSGTDFTLTISSLQPEDFATYYCQQSYSTPLTFGGGTKVDIK
notes: also called clone F138
B4 was tested. Which “Target binding/IgG level” value [1] did it give?
The value was 1.2 ratio of OD450.

B5: F26-ADC (antibody F26 conjugated to mc-VC-PAB-MMAE) (antibody, V domains shown)
VH: EVQLLESGGGVVQRGRSLRLSCAASGFTFSSYGMHWVRQAPGKGLEWVAVISYDGSNKYYADSVKGRFTISRDNSKNTLYLPMNSLRAEDTAVYYCARPRAYYGAYGSSFDYWGQGTQVTVSS
VL: EIVMTQSPSSVSASVGDRVAITCRASQGISSWLAWYQQKPGKAPKLLIYAASSLQSGVPSRFSGSGSGTDFTLTISSLQPEDFATYYCQQSYSTPLTFGGGTKVDIK
modifications: mc-VC-PAB-MMAE on cysteine thiols after TCEP reduction (positions not stated; DAR within 3~4)
notes: Antibody-drug conjugate; also called F26 immunoconjugate
How did the EC50 [2] turn out when B5 was run?
The EC50 was 8.04 ng/mL.

What about the “Internalization ratio (%), Hela, 4 h” value [3] of the same binder?
Its value is 43.3%.

What about the “Internalization ratio (%), Hela, 24 h” value [3] of the same binder?
Its value is 75.5%.

What about the “Internalization ratio (%), OV90, 4 h” value [3] of the same binder?
The value was 21.6%.

And the “Internalization ratio (%), OVCAR3, 4 h” value [3]?
Its value is 38.3%.

And the “Internalization ratio (%), OVCAR3, 24 h” value [3]?
The value was 48.1%.

B6: anti-FOLR1 antibody F48 (antibody, V domains shown)
VH: EVQLLESGGGVVQPGRSLRLSCAASGFTFSSYGMHWVRQAPGKGLEWVAVISYDGSNKYYADSVKGRFTISRDNSKNTLYLHMNSLRAEDTAVYYCARPRAYYGAYGSSFDYWGQGTQVTVSS
VL: EIVMTQSPSSVSASVGDRVAITCRASQGISSWLAWYQQKPGKAPKLLIYAASSLQSGVPSRFSGSGSGTDFTLTISSLQPEDFATYYCQQSYSTPLTFGGGTKVDIK
notes: also called clone F48
With B6 as the binder, how does the “Target binding/IgG level” value [1] read?
Its value is 1.12 ratio of OD450.

B7: anti-FOLR1 antibody F123 (antibody, V domains shown)
VH: EVQLLESGGGVVQPERSLRLSCAASGFTFSSYGMHWVRQAPGKGLEWVAVISYDGSNKYYADSVKGRFTISRANSKNTLYLQMNSLRAEDTAVYYCARPRAYYGAYGSSFDYWGQGTQVTVSS
VL: EIVMTQSPSSVSASVGDRVAITCRASQGISSWLAWYQQKPGKAPKLLIYAASSLQSGVPSRFSGSGSGTDFTLTISSLQPEDFATYYCQQSYSTPLTFGGGTKVDIK
notes: also called clone F123
Which “Target binding/IgG level” value [1] does the source give for B7 here?
The value was 1.06 ratio of OD450.

B8: anti-FOLR1 antibody F100 (antibody, V domains shown)
VH: EVQLLESGGGVVQPGRSLRLSCAASGFTFSSYGMHWVRQAPGKGLEWVAVISYDGSNKYYADSVKGRFTISRPNSKNTLYLQMNSLRAEDTAVYYCARPRAYYGAYGSSFDYWGQGTQVTVSS
VL: EIVMTQSPSSVSASVGDRVAITCRASQGISSWLAWYQQKPGKAPKLLIYAASSLQSGVPSRFSGSGSGTDFTLTISSLQPEDFATYYCQQSYSTPLTFGGGTKVDIK
notes: also called clone F100
With B8 as the binder, how does the “Target binding/IgG level” value [1] read?
The value was 1.48 ratio of OD450.

B9: anti-FOLR1 antibody F26 (antibody, V domains shown)
VH: EVQLLESGGGVVQRGRSLRLSCAASGFTFSSYGMHWVRQAPGKGLEWVAVISYDGSNKYYADSVKGRFTISRDNSKNTLYLPMNSLRAEDTAVYYCARPRAYYGAYGSSFDYWGQGTQVTVSS
VL: EIVMTQSPSSVSASVGDRVAITCRASQGISSWLAWYQQKPGKAPKLLIYAASSLQSGVPSRFSGSGSGTDFTLTISSLQPEDFATYYCQQSYSTPLTFGGGTKVDIK
notes: also called clone F26
How did the “Target binding/IgG level” value [1] turn out when B9 was run?
The value was 1.21 ratio of OD450.

And the EC50 [4]?
Its EC50 is 4.68 ng/mL.

B10: F131-ADC (antibody F131 conjugated to mc-VC-PAB-MMAE) (antibody, V domains shown)
VH: EVQLLESGGGVVQPGRSLRLSCAASGFTFSSYGMHWVRQAPGKGLEWVAVISYDGSNKYYADSVKGRFTISRANSKNTLYLQMNSLRAEDTAVYYCARPRAYYGAYGSSFDYWGQGTQVTVSS
VL: EIVMTQSPSSVSASVGDRVAITCRASQGISSWLAWYQQKPGKAPKLLIYAASSLQSGVPSRFSGSGSGTDFTLTISSLQPEDFATYYCQQSYSTPLTFGGGTKVDIK
modifications: mc-VC-PAB-MMAE on cysteine thiols after TCEP reduction (positions not stated; DAR within 3~4)
notes: Antibody-drug conjugate; also called F131 immunoconjugate
How did the EC50 [2] turn out when B10 was run?
Its EC50 is 6.64 ng/mL.

What about the “Internalization ratio (%), Hela, 4 h” value [3] of the same binder?
Its value is 50%.

What about the “Internalization ratio (%), Hela, 24 h” value [3] of the same binder?
Its value is 74.8%.

And the “Internalization ratio (%), OV90, 4 h” value [3]?
Its value is 15%.

What about the “Internalization ratio (%), OVCAR3, 4 h” value [3] of the same binder?
Its value is 35.2%.

And the “Internalization ratio (%), OVCAR3, 24 h” value [3]?
Its value is 47.7%.

B11: anti-FOLR1 antibody F131 (antibody, V domains shown)
VH: EVQLLESGGGVVQPGRSLRLSCAASGFTFSSYGMHWVRQAPGKGLEWVAVISYDGSNKYYADSVKGRFTISRANSKNTLYLQMNSLRAEDTAVYYCARPRAYYGAYGSSFDYWGQGTQVTVSS
VL: EIVMTQSPSSVSASVGDRVAITCRASQGISSWLAWYQQKPGKAPKLLIYAASSLQSGVPSRFSGSGSGTDFTLTISSLQPEDFATYYCQQSYSTPLTFGGGTKVDIK
notes: also called F131 mAb; clone F131
Which results are given for B11?
Target binding/IgG level [1]: 1.02 ratio of OD450; EC50 [4]: 8.46 ng/mL; EC50 [5]: 1.55 nM

B12: anti-FOLR1 antibody F8 (antibody, V domains shown)
VH: EVQLLESGGGVVQHGRSLRLSCAASGFTFSSYGMHWVRQAPGKGLEWVAVISYDGSNKYYADSVKGRFTISRDNSKNTLYLQMNSLRAEDTAVYYCARPRAYYGAYGSSFDYWGQGTQVTVSS
VL: EIVMTQSPSSVSASVGDRVAITCRASQGISSWLAWYQQKPGKAPKLLIYAASSLQSGVPSRFSGSGSGTDFTLTISSLQPEDFATYYCQQSYSTPLTFGGGTKVDIK
notes: also called clone F8
What does the source list for B12?
Target binding/IgG level [1]: 1.12 ratio of OD450; EC50 [4]: 8.48 ng/mL

B13: anti-FOLR1 antibody F112 (antibody, V domains shown)
VH: EVQLLESGGGVVQPGRSLRLSCAASGFTFSSYGMHWVRQAPGKGLEWVAVISYDGSNKYYADSVKGRFTISRHNSKNTLYLQMNSLRAEDTAVYYCARPRAYYGAYGSSFDYWGQGTQVTVSS
VL: EIVMTQSPSSVSASVGDRVAITCRASQGISSWLAWYQQKPGKAPKLLIYAASSLQSGVPSRFSGSGSGTDFTLTISSLQPEDFATYYCQQSYSTPLTFGGGTKVDIK
notes: also called clone F112
B13 was tested. Which “Target binding/IgG level” value [1] did it give?
The value was 1.12 ratio of OD450.

B14: FR107-ADC (reference antibody mirvetuximab huFR107 conjugated to mc-VC-PAB-MMAE) (antibody, V domains shown)
VH: QVQLVQSGAEVVKPGASVKISCKASGYTFTGYFMNWVKQSPGQSLEWIGRIHPYDGDTFYNQKFQGKATLTVDKSSNTAHMELLSLTSEDFAVYYCTRYDGSRAMDYWGQGTTVTVSS
VL: DIVLTQSPLSLAVSLGQPAIISCKASQSVSFAGTSLMHWYHQKPGQQPRLLIYRASNLEAGVPDRFSGSGSKTDFTLTISPVEAEDAATYYCQQSREYPYTFGGGTKLEIK
modifications: mc-VC-PAB-MMAE on cysteine thiols after TCEP reduction (positions not stated; DAR within 3~4)
notes: Control conjugate
How did the EC50 [2] turn out when B14 was run?
Its EC50 is 3.39 ng/mL.

And the “Internalization ratio (%), Hela, 4 h” value [3]?
The value was 58.4%.

What about the “Internalization ratio (%), Hela, 24 h” value [3] of the same binder?
The value was 75.1%.

What about the “Internalization ratio (%), OV90, 4 h” value [3] of the same binder?
Its value is 28%.

What about the “Internalization ratio (%), OVCAR3, 4 h” value [3] of the same binder?
Its value is 26.3%.

What about the “Internalization ratio (%), OVCAR3, 24 h” value [3] of the same binder?
Its value is 44.8%.
